From patent US6500934
Values belong to the binder of their own block, whether it stands above or below them. Non-standard residues stand in square brackets, D forms with d. No end group written: not given here. Ahx = NCCCCCC(=O)O; βAla = NCCC(=O)O

Experiments:
[1] = target: α-MSH receptor of wild type Xenopus laevis melanophores (Xenopus laevis); test: cell-based or functional assay
[2] = target: bombesin receptor expressed in transfected Xenopus laevis melanophores (plasmid pJG3.6BR); test: cell-based or functional assay

EC50 (at t=30 min.) of pigment dispersion in wild type melanophores [1]: 72.5 nM
EC50 of pigment dispersion, fold lower than α-MSH monomer [1]: 5 fold
Binder: SYSMEHFRWGKPVGGG[Ahx]KKKKKKKKKKKKKKKKKKKKC[βAla] (ends and bridges not checked; also: disulfide-linked homodimer via Cys) [α-MSH dimer (disulfide-linked homodimer of …-GGG-εAhx-K(20)-C-βAla)]

EC50 (t=30 min) of pigment dispersion in melanophores transfected with the bombesin receptor [2]: 23.4 nM
EC50 of pigment dispersion, fold lower than bombesin monomer [2]: 5 fold
B1: Bombesin dimer (disulfide-linked homodimer of C-K(20)-εAhx-GGG-…) (peptide)
peptide: CKKKKKKKKKKKKKKKKKKKK[Ahx]GGGQQRLGNQWAVGHLM-NH2
modifications: ends and bridges not checked; also: disulfide-linked homodimer via N-terminal Cys

IC50 of inhibition of α-MSH (5 nM) mediated pigment dispersion in wild type melanophores [1]: 120 nM
Binder: MP[dF]R[dW]FKPVGGG[Ahx]KKKKKKKKKKKKKKKKKKKK[βAla] [α-MSH-ANT monomer (MPdFRdWFKPV-GGGεAhx-K(20)-βAla)]
